Experimental findings from patent US20230357414A1 (SYNTHEKINE, published 2023) are described below.

Positions count from the first letter of the chain named.

First the molecules themselves.
T1: extracellular domain of human IL12Rb2 (amino acids 24-622 of hIL12Rb2, UniProt Q99665) (human, UniProt Q99665 24-622)
T1 construct: also called hIL12Rb2 ECD; hIL12Rb2-ECD
T1 sequence: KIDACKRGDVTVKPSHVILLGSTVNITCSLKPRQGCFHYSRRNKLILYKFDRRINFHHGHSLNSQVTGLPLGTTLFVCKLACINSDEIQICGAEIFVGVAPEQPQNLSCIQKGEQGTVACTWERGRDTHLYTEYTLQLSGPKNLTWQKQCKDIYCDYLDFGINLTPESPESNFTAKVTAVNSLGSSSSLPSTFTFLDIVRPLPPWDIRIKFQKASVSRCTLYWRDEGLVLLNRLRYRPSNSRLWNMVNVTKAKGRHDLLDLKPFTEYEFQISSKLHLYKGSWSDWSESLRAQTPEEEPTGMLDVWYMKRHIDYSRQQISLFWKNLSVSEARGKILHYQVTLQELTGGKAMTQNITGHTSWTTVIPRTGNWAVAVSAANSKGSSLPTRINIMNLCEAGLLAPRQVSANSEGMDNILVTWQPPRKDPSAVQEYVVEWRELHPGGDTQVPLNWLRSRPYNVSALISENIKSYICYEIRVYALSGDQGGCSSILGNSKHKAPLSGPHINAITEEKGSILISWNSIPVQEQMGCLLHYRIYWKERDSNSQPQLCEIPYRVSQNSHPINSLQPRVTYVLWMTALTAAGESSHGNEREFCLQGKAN

T2: extracellular domain of mouse IL12Rb2 (614 amino acids, amino acids 24-637 of the mIL12Rb2 precursor, UniProt … (mouse, UniProt P97378 24-637))
T2 construct: also called mIL12Rb2 ECD; mIL12Rb2 ECD antigen
T2 sequence: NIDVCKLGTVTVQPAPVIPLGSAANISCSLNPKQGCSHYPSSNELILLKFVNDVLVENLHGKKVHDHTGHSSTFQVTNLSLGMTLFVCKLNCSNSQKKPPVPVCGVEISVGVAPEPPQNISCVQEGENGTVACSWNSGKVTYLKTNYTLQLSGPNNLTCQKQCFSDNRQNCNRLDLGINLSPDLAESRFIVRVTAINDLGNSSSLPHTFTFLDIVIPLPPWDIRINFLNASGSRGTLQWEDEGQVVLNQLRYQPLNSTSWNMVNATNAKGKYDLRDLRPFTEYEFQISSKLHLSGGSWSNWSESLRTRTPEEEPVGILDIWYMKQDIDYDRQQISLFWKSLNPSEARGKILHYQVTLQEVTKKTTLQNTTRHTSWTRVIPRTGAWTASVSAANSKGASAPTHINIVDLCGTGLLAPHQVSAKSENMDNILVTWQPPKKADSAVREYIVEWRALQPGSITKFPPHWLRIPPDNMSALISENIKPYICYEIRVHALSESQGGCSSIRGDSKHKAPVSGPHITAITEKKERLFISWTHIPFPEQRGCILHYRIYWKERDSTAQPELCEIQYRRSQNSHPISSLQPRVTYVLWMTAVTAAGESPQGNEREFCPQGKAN

B1: VHH5 (VHH)
VHH: QVQLQESGGGLVQPGGSLKLSCAASGFTFSTYAMSWVRQAPGKEPEWISRISSGGGNTYYADAVKGRFAISRDNAKNTLYLQLNSLKTEDTAIYVCTMDDYYGGSWHPISRGHGTQVTVSS
notes: Camel VHH, tested as a periplasmic extract of a phage clone; also called anti-human IL12Rb2 VHH5; hIL12Rb2 VHH; not shown: HA/His tag encoded by the pMECS phagemid
B2: mIL12Rb2 VHH10 (VHH)
VHH: QVQLQESGGGSVQAGGSLRLSCAASGYTFSNHHMGWFRQAPGKEREGVAAIYTGAGNIYYADSVKDRFTISKDTAKNTLYLQMNSLTPEDTGMYYCAADLTRWYSGGWRDPRGYKYWGQGTQVTVSS
notes: Camel VHH, tested as a periplasmic extract of a phage clone; also called anti-mouse IL12Rb2 VHH10; not shown: HA/His tag encoded by the pMECS phagemid
B3: mIL12Rb2 VHH12 (VHH)
VHH: B2 VHH with S11V, A14P
notes: Camel VHH, tested as a periplasmic extract of a phage clone; also called anti-mouse IL12Rb2 VHH12; not shown: HA/His tag encoded by the pMECS phagemid
B4: mIL12Rb2 VHH11 (VHH)
VHH: B2 VHH with S11P
notes: Camel VHH, tested as a periplasmic extract of a phage clone; also called anti-mouse IL12Rb2 VHH11; not shown: HA/His tag encoded by the pMECS phagemid
B5: mIL12Rb2 VHH13 (VHH)
VHH: B2 VHH with A24V
notes: Camel VHH, tested as a periplasmic extract of a phage clone; also called anti-mouse IL12Rb2 VHH13; not shown: HA/His tag encoded by the pMECS phagemid
B6: mIL12Rb2 VHH5 (VHH)
VHH: QVQLQESGGGSVQAGGSLRLSCAASGITYRGVWMGWFRQAPGKEREGVATIYTGSGHTYYADSVKGRFTISQDNAKNTVYLQMNSLKPEDTAMYYCAARTVGGTFYTLAADSFNTWGQGTQVTVSS
notes: Camel VHH, tested as a periplasmic extract of a phage clone; also called anti-mouse IL12Rb2 VHH5; not shown: HA/His tag encoded by the pMECS phagemid
B7: mIL12Rb2 VHH15 (VHH)
VHH: QVQLQESGGGSVQDGGSLRLSCAASGDIYARNCMGWFRQAPGKEREKIAVADTGGRSPYYADSVKGRFTISRDNAKNTVDLQMNSLKPEDTAVYYCAAGPLVPVVNTAARCVYEYWGQGTQVTVSS
notes: Camel VHH, tested as a periplasmic extract of a phage clone; also called anti-mouse IL12Rb2 VHH15; not shown: HA/His tag encoded by the pMECS phagemid
B8: mIL12Rb2 VHH14 (VHH)
VHH: QVQLQESGGGSVQAGGSLRLSCAASGATNSNRHMGWFRQAPGKEREGVAAIYTGYTGGGNTYYADSVRDRFTISQDNAKNTLYLQMNSLTPEDTAMYYCAADLTRWYSGGWRDPRGYKYWGQGTQVTVSS
notes: Camel VHH, tested as a periplasmic extract of a phage clone; also called anti-mouse IL12Rb2 VHH14; not shown: HA/His tag encoded by the pMECS phagemid
B9: mIL12Rb2 VHH16 (VHH)
VHH: B8 VHH with R68K
notes: Camel VHH, tested as a periplasmic extract of a phage clone; also called anti-mouse IL12Rb2 VHH16; not shown: HA/His tag encoded by the pMECS phagemid
B10: mIL12Rb2 VHH2 (VHH)
VHH: QVQLQESGGGSVQAGGSLRLSCAASGVTYGSYYMAAWFRQAPGKEREGVASIYGGSDSTYYADSVLGRFTISQDNGKNTLYLQMNSLKPDDTAMYYCAAAPPGKWFLKRLEGHNYSYWGQGTQVTVSS
notes: Camel VHH, tested as a periplasmic extract of a phage clone; also called anti-mouse IL12Rb2 VHH2; not shown: HA/His tag encoded by the pMECS phagemid
B11: mIL12Rb2 VHH1 (VHH)
VHH: QVQLQESGGGSVQAGGSLRLSCAASGYTYSNRHMGWFRQAPGKEREGVAAIYTGGGSTYYADSVKDRFTISQDNAKNTLYLQMNSLTPEDTAMYYCAADLTRWYSGGWRDPRGYKYWGQGTQVTVS
notes: Camel VHH, tested as a periplasmic extract of a phage clone; also called anti-mouse IL12Rb2 VHH1; not shown: HA/His tag encoded by the pMECS phagemid
B12: mIL12Rb2 VHH6 (VHH)
VHH: QVQLQESGGGSVQAGGSLRLSCAVSGKAYGGAWFRQAQGKGREGVAAIWIGTGTTFYADSVKGRFTISRDNAKNTVYLQMDGLKPEDTAVYYCAADDRPGYRDPLAPVSYNHWGQGTQVTVSS
notes: Camel VHH, tested as a periplasmic extract of a phage clone; also called anti-mouse IL12Rb2 VHH6; not shown: HA/His tag encoded by the pMECS phagemid
B13: mIL12Rb2 VHH8 (VHH)
VHH: B12 VHH with A23V, G41S, V90M
notes: Camel VHH, tested as a periplasmic extract of a phage clone; also called anti-mouse IL12Rb2 VHH8; not shown: HA/His tag encoded by the pMECS phagemid
B14: mIL12Rb2 VHH4 (VHH)
VHH: B12 VHH with A14V, A28L, V90L
notes: Camel VHH, tested as a periplasmic extract of a phage clone; also called anti-mouse IL12Rb2 VHH4; not shown: HA/His tag encoded by the pMECS phagemid
B15: mIL12Rb2 VHH7 (VHH)
VHH: B12 VHH with R19K, K27N, A28P, G41S, I50L, L78V, M80I, V90M
notes: Camel VHH, tested as a periplasmic extract of a phage clone; also called anti-mouse IL12Rb2 VHH7; not shown: HA/His tag encoded by the pMECS phagemid
B16: mIL12Rb2 VHH9 (VHH)
VHH: B12 VHH with R19T, A23V, Y29F, E86D, V90M
notes: Camel VHH, tested as a periplasmic extract of a phage clone; also called anti-mouse IL12Rb2 VHH9; not shown: HA/His tag encoded by the pMECS phagemid

The target of one assay is T1, extracellular domain of human IL12Rb2 …. Briefly: periplasmic extract ELISA on antigen-coated plate; positive if A450 at least threefold over PBS-coated control. The procedure: (§1) Upon completion of the biopanning of Example 3, three 96-well plates of individual phage clones were isolated in order to perform periplasmic extract ELISA (PE-ELISA) on IL12Rb2 coated plates to identify positive VHH binders that selectively bound IL12Rb2. A 96-well plate was coated with IL12Rb2 and PBS under the same conditions. Next, wells were blocked at 37° C. for 1 h. Then, 100 μl of extracted antibodies was added to each well and incubated for 1 h. Subsequently, 100 μl of anti-tag polyclonal antibody conjugated to HRP was added to each well and incubated at 37° C. for 1 h. Plates were developed with TMB substrate. The reaction was stopped by the addition of H2SO4. Absorbance at 450 nm was read on a microtiter plate reader. Antibodies with absorbance of the antigen-coated well at least threefold greater than PBS-coated control are VHHs that specifically bind to IL 12Rb2. Positive clones were sequenced, and sequences analyzed to identify unique clonotypes
In the case of B1, the binding result is recorded as “binds”.

The next assay deals with T2, extracellular domain of mouse IL12Rb2 …. The assay is described as above. The procedure: as §1
Take B2: the binding result is recorded as “binds”.

Consider B3, for which the binding result is “binds”.

Consider B4, for which the binding result was “binds”.

Turning to B5, the binding result is listed as “binds”.

Turning to B6, the binding result is recorded as “binds”.

In the case of B7, the binding result was “binds”.

With B8, the binding result is listed as “binds”.

In the case of B9, the binding result was “binds”.

With B10, the binding result is listed as “binds”.

In the case of B11, the binding result was “binds”.

For the molecule B12, the binding result is “binds”.

Turning to B13, the binding result is listed as “binds”.

For B14, the binding result is given as “binds”.

Turning to B15, the binding result is recorded as “binds”.

Take B16: the binding result is “binds”.
